For series [1], the target named is human guanylate-binding protein 1 (GBP1), non-farnesylated (human) (UniProt P32455). As to the kind of experiment: SEC-MALS; protein at 15 µM with the GTP transition-state mimic GDP·AlF3, incubated 5–10 min at room temperature; Superdex200 Increase 10/300 GL; 50 mM HEPES pH 7.4, 150 mM NaCl, 0.5 mM TCEP or DTT. On the technique in general: SEC sorts molecules by how far they enter the pores of the column.

For series [2], the target named is T1, farnesylated human GBP1 (GBP1F) (human, UniProt P32455, C-terminal C15-farnesyl moiety (CaaX isoprenylation motif)).
T1 construct: human GBP1, UniProt P32455, from pETM14-GBP1, co-translationally farnesylated; also called GBP1F–GDP·AlF3; WT GBP1F; source: E. coli BL21(DE3), co-expressed with FNTA-FNTB, purified (TALON, 3C cleavage, HIC, SEC); not shown: His6, N-terminal, cleaved
As to the kind of experiment: SEC-MALS; nanobody mixed with GBP1 or GBP1F, in the presence and absence of GDP·AlF3; SDS–PAGE (and western blot for GFP–Nb74) of peak fractions. Conditions: both partners purified.

For series [3], the target named is T2, human guanylate-binding protein 1 (GBP1), non-farnesylated (human, UniProt P32455).
T2 construct: human GBP1, UniProt P32455, codon-optimized synthetic DNA in pETM14; called full-length in the results; Dimer studied with GDP·AlF3 (200 µM GDP, 10 mM NaF, 300 µM AlCl3, 5 mM MgCl2); also called hGBP1; WT GBP1; source: E. coli BL21(DE3), purified (TALON, 3C cleavage, SEC); not shown: His6, N-terminal, cleaved
Described as above. Conditions: both partners purified.

Series [4] concerns the molecule itself. Description: mass photometry; Refeyn OneMP; samples with GDP·AlF3 diluted to 15 nM in 50 mM HEPES pH 7.5, 150 mM NaCl.
Series [5] deals with the molecule itself. As to the kind of experiment: SEC-MALS; protein at 15 µM with the GTP transition-state mimic GDP·AlF3, incubated 5–10 min at room temperature; Superdex200 Increase 10/300 GL; 50 mM HEPES pH 7.4, 150 mM NaCl, 0.5 mM TCEP or DTT.

Residue numbers refer to the chain shown, from its start. Names and notes keep the numbering of the source.

With “human guanylate-binding protein 1 (GBP1), non-farnesylated (from UniProt P32455 1-592) (natural protein)”, the stoichiometry N (usually a count of units in the complex or per binding partner) in series [1] turned out to be 2.

B1: nanobody 74 (Nb74) (VHH)
VHH: QVQLVESGGGLVQAGDSLRLSCAASGRALGNYYVGWFSQAPGKEREFVAAISWSGSSTFYADSVKGRFTISRDNAKNTVDLQMNSLKPEDTAVYYCAANPTAKLGSSWYQTPREFGYWGQGTQVTVSS
notes: llama nanobody selected by phage display; the entry PDB 8CQB / EMD-16794 is headed GBP1–GDP·AlF3–Nb74, but the deposited model is called the GBP1 dimer (956 protein residues), so Nb74 may not be in it; Raised in llamas immunized with monomeric GBP1, GBP1F or GDP·AlF3-stabilized dimeric GBP1; source: E. coli WK6 (su−), periplasmic extract, purified (Ni-NTA)
On to B1, for which the “stoichiometry N” value stood at 1 in series [2] and 1 molar ratio in series [3].

B2: GBP1 D308S, non-farnesylated (natural protein, human, UniProt P32455 1-592, looked up)
chain: MASEIHMTGPMCLIENTNGRLMANPEALKILSAITQPMVVVAIVGLYRTGKSYLMNKLAGKKKGFSLGSTVQSHTKGIWMWCVPHPKKPGHILVLLDTEGLGDVEKGDNQNDSWIFALAVLLSSTFVYNSIGTINQQAMDQLYYVTELTHRIRSKSSPDENENEVEDSADFVSFFPDFVWTLRDFSLDLEADGQPLTPDEYLTYSLKLKKGTSQKDETFNLPRLCIRKFFPKKKCFVFDRPVHRRKLAQLEKLQDEELDPEFVQQVADFCSYIFSNSKTKTLSGGIQVNGPRLESLVLTYVNAISSGSLPCMENAVLALAQIENSAAVQKAIAHYEQQMGQKVQLPTETLQELLDLHRDSEREAIEVFIRSSFKDVDHLFQKELAAQLEKKRDDFCKQNQEASSDRCSALLQVIFSPLEEEVKAGIYSKPGGYRLFVQKLQDLKKKYYEEPRKGIQAEEILQTYLKSKESMTDAILQTDQTLTEKEKEIEVERVKAESAQASAKMLQEMQRKNEQMMEQKERSYQEHLKQLTEKMENDRVQLLKEQERTLALKLQEQEQLLKEGFQKESRIMKNEIQDLQTKMRRRKACTIS
notes: human GBP1, UniProt P32455, variant made from pETM14-GBP1 by QuikChange mutagenesis; source: E. coli BL21(DE3), purified (TALON, 3C cleavage, SEC); not shown: His6, N-terminal, cleaved
Take B2: in series [4], the binding result is reported as “binds”.

B3: GBP1F R584–586A (natural protein, human, UniProt P32455 1-592, looked up)
chain: B2 chain with S308D, R584A, R585A, R586A
modifications: C-terminal C15-farnesyl moiety (CaaX isoprenylation motif)
notes: human GBP1, UniProt P32455, polybasic motif R584–R586 changed to alanines, farnesylated; also called GBP1F R584-R586; source: E. coli BL21(DE3), purified; not shown: His6, N-terminal, cleaved
For B3, the binding result in series [5] was “binds”.

B4: GBP1 K466D, non-farnesylated (natural protein, human, UniProt P32455 1-592, looked up)
chain: B2 chain with S308D, K466D
notes: as for B2
Take B4: in series [4], the binding result was “binds”.

B5: GBP1 Y143A, non-farnesylated (natural protein, human, UniProt P32455 1-592, looked up)
chain: B2 chain with Y143A, S308D
notes: as for B2
B5: the binding result in series [4] was “binds”.

The values are drawn from article PMC11746146 (Nature Structural & Molecular Biology, 2024).
